T1: Kindlin-2 (residues 1-680) (human, UniProt Q96AC1 1-680)
T1 construct: human kindlin-2, residues 1-680; source: SUMO-tag cleaved by Ulp1
T1 sequence (looked up): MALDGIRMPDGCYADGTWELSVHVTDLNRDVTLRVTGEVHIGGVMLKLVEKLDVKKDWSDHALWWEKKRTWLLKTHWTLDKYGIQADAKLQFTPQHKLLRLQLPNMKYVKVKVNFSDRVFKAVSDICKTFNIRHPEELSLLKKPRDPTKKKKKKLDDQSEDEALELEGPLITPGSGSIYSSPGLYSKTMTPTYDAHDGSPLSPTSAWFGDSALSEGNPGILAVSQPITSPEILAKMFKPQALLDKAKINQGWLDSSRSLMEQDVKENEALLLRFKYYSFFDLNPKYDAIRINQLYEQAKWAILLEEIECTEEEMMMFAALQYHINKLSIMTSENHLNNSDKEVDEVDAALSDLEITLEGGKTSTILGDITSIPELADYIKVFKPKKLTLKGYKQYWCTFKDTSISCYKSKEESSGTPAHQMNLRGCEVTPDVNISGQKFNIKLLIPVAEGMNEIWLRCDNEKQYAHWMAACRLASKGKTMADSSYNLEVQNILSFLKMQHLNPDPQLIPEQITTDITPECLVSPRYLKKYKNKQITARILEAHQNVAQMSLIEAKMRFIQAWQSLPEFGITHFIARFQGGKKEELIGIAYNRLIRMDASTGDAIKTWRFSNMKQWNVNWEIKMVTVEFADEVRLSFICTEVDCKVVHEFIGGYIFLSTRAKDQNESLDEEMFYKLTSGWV

B1: Integrin-linked kinase (ILK, residues 1-452), as subunit of the IPP complex (natural protein, human, UniProt Q13418 1-452, looked up)
chain: MDDIFTQCREGNAVAVRLWLDNTENDLNQGDDHGFSPLHWACREGRSAVVEMLIMRGARINVMNRGDDTPLHLAASHGHRDIVQKLLQYKADINAVNEHGNVPLHYACFWGQDQVAEDLVANGALVSICNKYGEMPVDKAKAPLRELLRERAEKMGQNLNRIPYKDTFWKGTTRTRPRNGTLNKHSGIDFKQLNFLTKLNENHSGELWKGRWQGNDIVVKVLKVRDWSTRKSRDFNEECPRLRIFSHPNVLPVLGACQSPPAPHPTLITHWMPYGSLYNVLHEGTNFVVDQSQAVKFALDMARGMAFLHTLEPLIPRHALNSRSVMIDEDMTARISMADVKFSFQCPGRMYAPAWVAPEALQKKPEDTNRRSADMWSFAVLLWELVTREVPFADLSNMEIGMKVALEGLRPTIPPGISPHVCKLMKICMNEDPAKRPKFDMIVPILEKMQDK
notes: human integrin-linked kinase (ILK), residues 1-452; Stood in the assay within the IPP complex; source: E. coli, co-expressed with PINCH-1 and α-parvin, purified as the IPP complex
B2: Ras suppressor-1 (Rsu-1), wild type, full length (natural protein, human, UniProt Q15404 1-277, looked up)
chain: MSKSLKKLVEESREKNQPEVDMSDRGISNMLDVNGLFTLSHITQLVLSHNKLTMVPPNIAELKNLEVLNFFNNQIEELPTQISSLQKLKHLNLGMNRLNTLPRGFGSLPALEVLDLTYNNLSENSLPGNFFYLTTLRALYLSDNDFEILPPDIGKLTKLQILSLRDNDLISLPKEIGELTQLKELHIQGNRLTVLPPELGNLDLTGQKQVFKAENNPWVTPIADQFQLGVSHVFEYIRSETYKYLYGRHMQANPEPPKKNNDKSKKISRKPLAAKNR
notes: after thrombin cleavage a few of its residues probably remain (surmised); also called Rsu-1 (WT); Rsu-1 WT; not shown: His6, N-terminal, cleaved
B3: GST-fused PINCH-2 LIM5S domain (residues 254-330) (domain or fragment, human, UniProt Q7Z4I7 254-330, looked up)
chain: GDVCYNCSHVIEGDVVSALNKAWCVSCFSCSTCNSKLTLKNKFVEFDMKPVCKRCYEKFPLELKKRLKKLSELTSRK
notes: human PINCH-2 LIM5 domain without the C-terminal 11 residues, residues 254-330; Cloned in pGEX4T1; held on the anti-GST biosensor; also called PINCH-2 LIM5S domain (WT); PINCH-2 LIM5 short domain; source: E. coli Rosetta 2 (DE3), purified (GSTrap)

Assays:
Settings in all cases: both partners purified
[1] = target: T1, Kindlin-2 (residues 1-680); assay: SEC; Superose 6 10/300 GL; purified IPP heterotrimer mixed with purified Kindlin-2 and Rsu-1, 4 °C at least 2 h; 20 mM Tris pH 7.5, 150 mM NaCl, 5% glycerol, 0.2 mM TCEP; peak reloaded on the same column
[2] = target: T2, PINCH-1 (residues 1-325), as subunit of the IPP complex (human, UniProt P48059 1-325); assay: as above
T2 construct: human PINCH-1, residues 1-325; Stood in the assay within the IPP complex; source: E. coli, co-expressed with ILK and α-parvin, purified as the IPP complex
T2 sequence (P48059 whole entry, the tested form may be a part, one chain of several): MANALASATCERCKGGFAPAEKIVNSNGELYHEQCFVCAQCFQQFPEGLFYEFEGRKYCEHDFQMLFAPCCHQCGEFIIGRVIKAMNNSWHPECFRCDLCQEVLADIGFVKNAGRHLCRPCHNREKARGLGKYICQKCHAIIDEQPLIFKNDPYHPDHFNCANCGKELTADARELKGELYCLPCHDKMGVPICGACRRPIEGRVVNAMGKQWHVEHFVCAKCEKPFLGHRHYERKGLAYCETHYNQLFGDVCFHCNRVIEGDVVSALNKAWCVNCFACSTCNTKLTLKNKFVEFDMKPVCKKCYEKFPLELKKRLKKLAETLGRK

[3] = target: B2; assay: BLI; BLItz; GST-fused PINCH protein or GST (0.05 mg/ml) loaded on anti-GST biosensor, Rsu-1 WT or mutant in the mobile phase; 20 mM Tris pH 7.5, 150 mM NaCl, 1 mg/ml BSA, 0.05% Tween-20; 1:1 global fit; at least three measurements

**Q.** Does B1 bind [1]?
**A.** Result: binds

**Q.** Does B2 bind [2]?
**A.** Result: binds

**Q.** With B3 as the binder, how does the Kd [3] read?
**A.** The Kd was 925 ± 194 nM.
